Kd data for twelve substances are collected here from patent publication US20170281749A1.

Assay [1] deals with CH505TF gp140 Trimer. Kind of assay: SPR. On the technique in general: Surface plasmon resonance follows binding to a sensor surface in real time, without labels.
Assay [2] has as its target CH505TF gp120 GCN4 Trimer. Kind of assay: SPR.

As a reminder, the Kd is the equilibrium constant for the complex coming apart. Lower therefore signals a tighter complex. Take 19b (V3): the Kd was found to be 0.0012 µM in assay [1] and 0.0008 µM in assay [2].

With F105 (CD4 bs), the results for the Kd in assay [1] and in assay [2] were 0.0249 µM and 0.0407 µM, respectively.

Consider VRC01 (CD4 bs), for which the figures for the dissociation constant Kd in assay [1] and in assay [2] were 0.0024 µM and 0.0025 µM, respectively.

As to CH01 (V1-V2), the dissociation constant (Kd) in assay [2] is > 100 µM.

With CH58 (V2), the Kd in assay [1] was 0.0605 µM; in assay [2], 0.104 µM.

For the substance 2G12 (-CHO), the Kd in assay [1] stood at 0.0065 µM; in assay [2], 0.169 µM.

In the case of PGT128 (-CHO), the figures for the Kd in assay [1] and in assay [2] were 0.0203 µM and 0.053 µM, respectively.

Consider PG9 (V1-V2), for which the Kd in assay [1] came to 0.0692 µM; in assay [2], 0.159 µM.

With CH103_UCA (CD4 bs), the Kd in assay [1] amounted to 0.0361 µM; in assay [2], 0.0146 µM.

In the case of 697 D (V2), the Kd in assay [1] was 0.17 µM; in assay [2], 0.554 µM.

On to A32 (C1), for which the results for the equilibrium dissociation constant (Kd) in assay [1] and in assay [2] were 0.003 µM and 0.0029 µM, respectively.

As for CH106 (CD4 bs), the figures for the Kd in assay [1] and in assay [2] were 0.00581 µM and 0.0055 µM, respectively.
